In the DeepSol protein solubility set:

Assay: soluble on expression in E. coli; label from the status in PepcDB or PDB records

| Sequence | soluble on expression in E. coli |
| --- | --- |
| MDKEIKICPRCEQGYLYHAKPKYFSGEVILCDECYAMWLGDMKIFYGQYGKDFYDYHEFMKDKGIEEINMWEGELFDHPYYEDEKFK | not soluble |
| MGSSHHHHHHSSGLEVLFQGPHMDFDVKRKYFRQELERLDEGLRKEDMAVHVRRDHVFEDSYRELHRKSPEEMKNRLYIVFEGEEGQDAGGLLREWYMIISREMFNPMYALFRTSPGDRVTYTINPSSHANPNHLSYFKFVGRIVAKAVYDNRLLECYFTRSFYKHILGKSVRYTDMESEDYHFYQGLVYLLENDVSTLGYDLTFSTEVQEFGVAEVRDLKPNGANILVTEENKKEYVHLVCQMRMTGAIRKQLAAFLEGFYEIIPKRLISIFTEQELELLISGLPTIDIDDLKSNTEYHKYQSNSIQIQWFWRALRSFDQADRAKFLQFVTGTSKVPLQGFAALEGMNGIQKFQIHRDDRSTDRLPSAHTCFNQLDLPAYESFEKLRHMLLLAIQEASEGFGLA | soluble |
| MSLSANDVNKDHLQTSIKQCENNGNGQEEGLKNPSKSGTTFYVPWEGSENFLSCQSKNGTPIMMVAYQTVLRDPLPGEEENVHLAARLLAGTVVKPGEVFSQNNKIGPYVIARGFKKGPTYIGTKLTTTIGGGVCKMASTLYNVAILSNLPVVERHAHSMPVPYVPYGQDATVSYGNKDLKFKNDTSSPIMIWAQGVDNILYVAFYSSTKPPEVEWHHEMLKLIKADKVYKMSSTLPKGREKLLMEGMDGAIVKSWVTVKNPDGTVIKRDLRKSYYNPMPHVYEKGKEGHHHHHH | soluble |
| MGSDKIHHHHHHMNDFTTEILKTLANKGDLNELFRVHLEKAVNTLLKTELTAFLDYEKYDRIGFNTGNSRNGSYDRTVKTEYGELHLQIPRDRNGEFKQQTVPAYRRTNDTLEETVIHLFRKGITMSEIADLIEKMYGHHYTPQTMSNITKSFTEEVTAFKGRELHDRYAAIYMDATYIPLKRKTVAKEAIHIAVGIRPDGSKEVLSYAIAPTESITIWEEILLDLQERGLKNVLLFITDGLKGMVGAISRFYPKARFQHCCVHVSRNISHKVRVDDRKEVCDDFKMVYQTSSKKVALEARGAFAEKWKTSYPKVVESILSNDHLLTFYDFPLAIRKSIYSTNLIESFNKQIKKYSHRKEQFQNEESMERFLVSSFDTYNQKFLGRSHKGFQQAEGELEQMLSQLIEN | not soluble |
| MRLALADAGDTVEDANFVEAMADAGILRLYTWVEWVKEMLASCSSLRSGPADSFNDRVFASEMNAGIIKTDQNYEKMMFKEALKTGFFEFQAAKDKYRELATEGMHRELVFRFIEVQTILLTPFCPHLCEHIWTLLGKPDSIMHASWPVAGPVDESLIRSSQYLMEVAHDLRLRLKNYMMPAKGKKTDKQPAQRPSHCTIYVAKNYPAWQHITLTTLRSHFEANNGKLPDNKVIASELGSLPELKKYMKKVMPFVAMIKENMEKKGPRVLDLELEFDEQAVLMENIVYLTNSLELEHIDVKFASEAEDKVREECCPGKPLNVFRTEPGVPVSLINPQPSSGHFSTKIDIRQGDSCESIIRRLTKTDRGIKDLSKVKLMRFDDPLLGPRRVPVLGREHSEKTLISENAVFHVDLVSKKVHLTENGLRMDIGDTMVYLVH | not soluble |
| MADVKEKINLLDVIPFRSENITAEKGSDGTVTIAFPRFKYEWMRRFLLPKGMSADIHVRLEDHGTAVWELIDGKRTVRRIIEELAEHFNYEENYESRITAYITQLQKDGFVKLVIEN | not soluble |
| MSSISLKEIIPPQPSTQRNFTTHLSYDPTTNAIAYPCGKSAFVRCLDDGDSKVPPVVQFTGHGSSVVTTVKFSPIKGSQYLCSGDESGKVIVWGWTFDKESNSVEVNVKSEFQVLAGPISDISWDFEGRRLCVVGEGRDNFGVFISWDSGNSLGEVSGHSQRINACHLKQSRPMRSMTVGDDGSVVFYQGPPFKFSASDRTHHKQGSFVRDVEFSPDSGEFVITVGSDRKISCFDGKSGEFLKYIEDDQEPVQGGIFALSWLDSQKFATVGADATIRVWDVTTSKCVQKWTLDKQQLGNQQVGVVATGNGRIISLSLDGTLNFYELGHDEVLKTISGHNKGITALTVNPLISGSYDGRIMEWSSSSMHQDHSNLIVSLDNSKAQEYSSISWDDTLKVNGITKHEFGSQPKVASANNDGFTAVLTNDDDLLILQSFTGDIIKSVRLNSPGSAVSLSQNYVAVGLEEGNTIQVFKLSDLEVSFDLKTPLRAKPSYISISPSETYIAAGDVMGKILLYDLQSREVKTSRWAFRTSKINAISWKPAEKGANEEEIEEDLVATGSLDTNIFIYSVKRPMKIIKALNAHKDGVNNLLWETPSTLVSSGADACIKRWNVVLE | soluble |
| MPNILYKIDNQYPYFTKNEKKIAQFILNYPHKVVNMTSQEIANQLETSSTSIIRLSKKVTPGGFNELKTRLSKFLPKEVTQYNVELVDNESTISLKNKLHSRSKAAL | soluble |
| MPYVTVKMLEGRTEEQKKALAEKVTAAVSETTGAPEENIVVFIEEMSKNHYAVGGKRLSDK | not soluble |
| VRSRNGGATKIVREHYLRSDIPCLSRSCTKCPQIVVPDAQNELPKFILSDSPLELSAPIGKHYVVLDTNVVLQAIDLLENPNCFFDVIVPQIVLDEVRNKSYPVYTRLRTLCRDSDDHKRFIVFHNEFSEHTFVERLPNETINDRNDRAIRKTCQWYSEHLKPYDINVVLVTNDRLNREAATKEVESNIITKSLVQYIELLPNADDIRDSIPQMDSFDKDLERDTFSDFTFPEYYSTARVMGGLKNGVLYQGNIQISEYNFLEGSVSLPRFSKPVLIVGQKNLNRAFNGDQVIVELLPQSEWKAPSSIVLDSEHFDVNDNPDIEAGDDDDNNESSSNTTVISDKQRRLLAKDAMIAQRSKKIQPTAKVVYIQRRSWRQYVGQLAPSSVDPQSSSTQNVFVILMDKCLPKVRIRTRRAAELLDKRIVISIDSWPTTHKYPLGHFVRDLGTIESAQAETEALLLEHDVEYRPFSKKVLECLPAEGHDWKAPTKLDDPEAVSKDPLLTKRKDLRDKLICSIDPPGCVDINDALHAKKLPNGNWEVGVHIADVTHFVKPGTALDAEGAARGTSVYLVDKRIDMLPMLLGTDLCSLKPYVDRFAFSVIWELDDSANIVNVNFMKSVIRSREAFSYEQAQLRIDDKTQNDELTMGMRALLKLSVKLKQKRLEAGALNLASPEVKVHMDSETSDPNEVEIKKLLATNSLVEEFMLLANISVARKIYDAFPQTAMLRRHAAPPSTNFEILNEMLNTRKNMSISLESSKALADSLDRCVDPEDPYFNTLVRIMSTRCMMAAQYFYSGAYSYPDFRHYGLAVDIYTHFTSPIRRYCDVVAHRQLAGAIGYEPLSLTHRDKNKMDMICRNINRKHRNAQFAGRASIEYYVGQVMRNNESTETGYVIKVFNNGIVVLVPKFGVEGLIRLDNLTEDPNSAAFDEVEYKLTFVPTNSDKPRDVYVFDKVEVQVRSVMDPITSKRKAELLLK | soluble |
| MAEWNRAKRKRKTIEIQYTGLASNSTLKVTKVTGKHLESMGIPGKFGYEVYPEEAVYLMETGSATISTSSGRDLSLLEAFSILEAMSVPMSKYEAYKHVKRTGLVVLRPRKPTIDFERLRHVEPKIRQKFAEKSFEMLVNRHTVPEERVPNPDSFPSFENRNGQISMKMKVLHTSPALVNFLPLEMLESIQTSTILQNLKPPTPNRPPCRPPSYWPFVDHHVTNWQEFRFQAEQARQETVLRRLKKLRPPSHAELRRERITVENVDFHVFSPASFSHRLPARPLFSLICYSATGPPLKISELAELENVVFAMEEAGKVNFVAMSGASIDLNNYLC | not soluble |
| MVVLNPNNWHWVDKNTLPWSKDYLNGKLTSLSTVSSDGKSKIELTQVSSITGDSNVSQRKGKPICYFDLQLSMNVKVTNLDTNKDDEDDDGILADGKLEIPEFMHDESDIPILSQGFDAFDGLVRSEFVPKVVETLLKYQDDLIKEHSKDIQV | soluble |
| MAHHHHHHMAAGSAEEAVALMKSAEKHSQKKFFKRPDWDAAASEYERAARIYTHLEDTNRATDAWRKASGAHQNAENNFFAARAMESLAVFLTEQSRKGMADDTSLLNNAVESYCDASKLYAFNEMFDRQADCLKKAAEIINPTKTIVTGLPATEAGSSQVKQRMQQVVGLFREGVSVLEEHIEDKPVVAVQLSELYRNWMLTHLHNGDVKGAVEVLEEQLGIRADPHKKGVFERLAQPHNSAKAGLEITVLCLSCGDDVWARQEMNKLRGVPGFSTSNEEATANALISSFEERDEEQLRAAMKNQTLQFITIDISRMSRKLKIQFSAPQRTNMTSSSLPNPSLPNEQQQGEEQQEADIDPEEDIR | not soluble |
| MAHTGRMFKIEAAEIVVARLPLKFRFETSFGVQTHKVVPLLILHGEGVQGVAEGTMEARPMYREETIAGALDLLRGTFLPAILGQTFANPEAVSDALGSYRGNRMARAMVEMAAWDLWARTLGVPLCTLLGGHKEQVEVGVSLGIQADEQATVDLVRRHVEQGYRRIKLKIKPGWDVQPVRATREAFPDIRLTVDANSAYTLADAGRLRQLDEYDLTYIEQPLAWDDLVDHAELARRIRTPLCLDESVASASDARKALALGAGGVINLKVARVGGHAESRRVHDVAQSFGAPVWCGGMLESGIGRAHNIHLSCLSNFRLPGDTSSASRYWERDLIQEPLEAVDGLMPVPQGPGTGVTLDREFLATVTEAQEEHRA | soluble |
| MAPPEGGEYLHKVTANSMSVNGDVPETVTAALADQRVEGRVCLEAGAGVGNTTAGLLAAGAKRVYAVTNDADHAATVRDRIGDRNADRLAVIEADLRATPLATDSVDLVAAHGLCNVLPPAELAPIAAELTRVAKPDGCLVVDDYAVPPADAAVNRLFALENAAARVVDGRPVLTFYPPAVLVAVFAANGWSVERRKTLLNPVPWTEAHLDAHAEVVREYAAALPDSLGEPLTAMAEDLVAAIGSERTGTMYSLAFRRADA | not soluble |
| MIIIQLNERQLKIIDIVKENEPITSESIASSLNVTRATLRSDLAILTMTGILDARPKVGYFYSGVSEINLIGKSVKEKTVEDIMSMPVLAKKDESIYDVIVTMFLSDVGSIVIIDENEELCGVVSRKDLLKATIGGSDINKMPIGMIMTRTPNVVTLTKGASVLLASRKIIEHEVDSIPIVEYKGEDKNHMRVVGRISKTNITKLFLEIVDN | not soluble |
| MGSDKIHHHHHHMRENKVVYGLIGYGGMGRWHTEILSNVPEAVIGGIYDIKEEKREEAKAKGFSVYETEEAMLADSDIDVVLIATPNDCHKPIAIRAMHAGKNVISEKPVTLSSADLLEMEKVAKETGKLFTVHQNRRWDDDFLIIKKLVEEQKLGHVFRIESRVHGSRGIPGDWRKEKVHGGGMVLDWGVHLLDQILYMYGDRKIETVYASLTNITNQEVDDGFTAILTFEGGTEVLVEVGTNNYISLPRWYVLGKDGTAVIRDWQLTGEIIRKTGKTEETVIPVKTAAGLTKTMAPRREDTIVKEDLPKVSGDIADFHRNVVAVIRDGAEPEIKLFQVMRVMKLMEAIFQAAETKQVIEFQDQV | not soluble |
| MSLLCLFAVFAFSCNEEMERLLTDDYPESGTEYTTGHVLMVVIDGASGIAVNEAYNTRKAPVIRSMTDKSLFTFYGLADNEEGVSKERGWANLLTGTTKNGLDVNQGIDELETPSFLQRLKEADENLKVSFYSSDTEFFGAFGSVANTKRKTSADSETADALIAEINGETISDIVVAQFGGVQQTGEQYGFWSNETTPTSEVIDAIYNVDAFIGKIMKALEARSRYVQENWLVVITSSYGGVYEGNVTPASEGHHHHHH | soluble |
